The text below walks through data of patent publication US7355015B1, “Matriptase, a serine protease and its applications” (Georgetown University School of Medicine, priority 1999, dated 2008).

Positions count from the first letter of the chain named.

Data set [1] concerns the target T1, matriptase (Homo sapiens, UniProt Q9Y5Y6).
T1 sequence (Q9Y5Y6 1-855): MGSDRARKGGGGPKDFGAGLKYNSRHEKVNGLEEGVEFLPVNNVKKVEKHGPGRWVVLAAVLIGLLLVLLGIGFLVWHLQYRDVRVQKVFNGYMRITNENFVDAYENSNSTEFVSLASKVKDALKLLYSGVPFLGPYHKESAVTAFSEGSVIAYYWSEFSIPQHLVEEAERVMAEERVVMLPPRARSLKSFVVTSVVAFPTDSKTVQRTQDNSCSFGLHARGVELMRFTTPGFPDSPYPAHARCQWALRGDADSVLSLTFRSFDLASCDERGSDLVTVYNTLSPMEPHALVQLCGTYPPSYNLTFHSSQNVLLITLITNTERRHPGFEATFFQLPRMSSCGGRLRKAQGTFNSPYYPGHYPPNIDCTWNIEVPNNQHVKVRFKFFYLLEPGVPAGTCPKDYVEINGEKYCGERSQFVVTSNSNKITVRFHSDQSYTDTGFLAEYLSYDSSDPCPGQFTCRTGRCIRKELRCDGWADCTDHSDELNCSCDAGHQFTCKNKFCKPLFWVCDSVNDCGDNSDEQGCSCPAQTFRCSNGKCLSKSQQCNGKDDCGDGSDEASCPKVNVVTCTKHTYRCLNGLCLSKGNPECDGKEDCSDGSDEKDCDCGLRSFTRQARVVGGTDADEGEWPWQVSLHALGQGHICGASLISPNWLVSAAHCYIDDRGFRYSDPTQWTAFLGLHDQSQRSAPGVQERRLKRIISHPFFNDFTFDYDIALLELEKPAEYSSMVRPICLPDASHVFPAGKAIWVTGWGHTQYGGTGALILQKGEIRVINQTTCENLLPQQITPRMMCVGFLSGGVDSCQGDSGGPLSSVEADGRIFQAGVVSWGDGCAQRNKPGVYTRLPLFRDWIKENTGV
In words: Fluorescent substrate assay and zymography with BBI. Format: biochemical. On the procedure:
A concentrate of BBI, BBIC, can be administered in dosage sufficient to obtain a blood level of 0.001 to 1 mM concentration of BBI in the blood as a means of inhibiting tumor initiation in a susceptible to breast cancer. As indicated by presence of matriptase in nipple aspirate or in tissue from biopsy, including tissue from needle biopsy. […] BBI interacts directly with the serine protease active site on matriptase.

Data set [2] concerns the target T2, soybean-derived Bowman-Birk inhibitor (BBI), P01055.
T2 chain: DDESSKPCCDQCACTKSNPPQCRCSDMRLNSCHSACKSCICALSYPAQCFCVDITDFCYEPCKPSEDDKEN

Data set [3] addresses T3, 40-kDa fragment of hepatocyte growth factor activator inhibitor-1 (HAI-1).
T3 chain: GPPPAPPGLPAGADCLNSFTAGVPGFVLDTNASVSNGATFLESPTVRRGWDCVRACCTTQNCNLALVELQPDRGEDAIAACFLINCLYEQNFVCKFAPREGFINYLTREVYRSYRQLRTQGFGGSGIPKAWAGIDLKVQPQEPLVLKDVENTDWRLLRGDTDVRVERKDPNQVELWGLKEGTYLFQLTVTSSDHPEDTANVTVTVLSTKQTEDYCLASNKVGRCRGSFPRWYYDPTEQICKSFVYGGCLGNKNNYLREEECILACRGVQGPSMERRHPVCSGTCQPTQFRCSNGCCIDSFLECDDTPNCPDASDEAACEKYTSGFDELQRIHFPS

Data set [4] has as its target human tissue kallikrein (Homo sapiens, UniProt P06870). As to conditions: cited from earlier work.
Data set [5] deals with human plasma kallikrein (Homo sapiens, UniProt P03952). The conditions noted are these: cited from earlier work.
human plasma kallikrein, sequence (P03952 20-638): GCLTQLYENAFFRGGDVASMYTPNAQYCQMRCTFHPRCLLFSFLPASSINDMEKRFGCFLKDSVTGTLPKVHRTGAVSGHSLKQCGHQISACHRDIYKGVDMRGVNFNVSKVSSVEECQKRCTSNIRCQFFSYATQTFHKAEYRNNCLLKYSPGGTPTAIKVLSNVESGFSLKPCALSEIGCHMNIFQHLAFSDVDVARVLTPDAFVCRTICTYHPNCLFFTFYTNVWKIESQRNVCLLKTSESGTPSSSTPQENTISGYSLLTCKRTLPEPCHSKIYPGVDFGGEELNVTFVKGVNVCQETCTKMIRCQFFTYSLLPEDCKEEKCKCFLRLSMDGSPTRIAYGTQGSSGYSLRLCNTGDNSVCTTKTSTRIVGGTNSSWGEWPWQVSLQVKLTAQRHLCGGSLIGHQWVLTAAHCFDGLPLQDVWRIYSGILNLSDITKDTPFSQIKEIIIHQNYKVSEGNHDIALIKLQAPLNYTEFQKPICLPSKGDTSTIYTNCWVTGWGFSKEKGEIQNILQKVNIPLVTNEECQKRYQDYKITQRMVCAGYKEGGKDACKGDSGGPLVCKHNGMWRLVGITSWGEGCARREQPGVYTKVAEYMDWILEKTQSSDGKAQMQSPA
The target of data set [6] is human factor XIa (Homo sapiens, UniProt P03951). As to conditions: cited from earlier work.
human factor XIa, sequence (P03951 388-625 limits assumed): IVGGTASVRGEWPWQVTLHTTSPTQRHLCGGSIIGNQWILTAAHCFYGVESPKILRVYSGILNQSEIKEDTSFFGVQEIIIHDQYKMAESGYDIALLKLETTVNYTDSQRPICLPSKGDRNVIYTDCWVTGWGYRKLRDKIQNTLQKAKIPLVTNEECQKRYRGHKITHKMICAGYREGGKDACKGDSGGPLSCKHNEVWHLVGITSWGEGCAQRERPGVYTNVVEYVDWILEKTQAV
human factor XIa, sequence (P03951 19-387 partner limits assumed): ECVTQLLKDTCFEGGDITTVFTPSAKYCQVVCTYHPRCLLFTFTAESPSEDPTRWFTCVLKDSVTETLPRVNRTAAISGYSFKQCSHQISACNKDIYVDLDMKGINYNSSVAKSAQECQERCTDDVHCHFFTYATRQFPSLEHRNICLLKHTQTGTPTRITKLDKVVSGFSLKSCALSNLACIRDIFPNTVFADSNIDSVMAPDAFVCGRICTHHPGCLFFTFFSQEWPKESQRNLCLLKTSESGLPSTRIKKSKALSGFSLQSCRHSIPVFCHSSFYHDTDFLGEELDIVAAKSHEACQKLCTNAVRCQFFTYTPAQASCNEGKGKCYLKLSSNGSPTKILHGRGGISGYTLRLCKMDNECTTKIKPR
The target of data set [7] is human plasmin (Homo sapiens, UniProt P00747). The conditions noted are these: cited from earlier work.
human plasmin, sequence (P00747 581-810 limits assumed): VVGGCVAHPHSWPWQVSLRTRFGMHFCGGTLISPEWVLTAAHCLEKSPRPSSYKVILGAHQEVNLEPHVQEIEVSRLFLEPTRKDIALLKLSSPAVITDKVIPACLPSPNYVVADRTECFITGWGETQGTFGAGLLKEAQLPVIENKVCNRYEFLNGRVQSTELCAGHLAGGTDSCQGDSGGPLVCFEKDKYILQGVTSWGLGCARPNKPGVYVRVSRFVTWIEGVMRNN
human plasmin, sequence (P00747 97-580 partner limits assumed): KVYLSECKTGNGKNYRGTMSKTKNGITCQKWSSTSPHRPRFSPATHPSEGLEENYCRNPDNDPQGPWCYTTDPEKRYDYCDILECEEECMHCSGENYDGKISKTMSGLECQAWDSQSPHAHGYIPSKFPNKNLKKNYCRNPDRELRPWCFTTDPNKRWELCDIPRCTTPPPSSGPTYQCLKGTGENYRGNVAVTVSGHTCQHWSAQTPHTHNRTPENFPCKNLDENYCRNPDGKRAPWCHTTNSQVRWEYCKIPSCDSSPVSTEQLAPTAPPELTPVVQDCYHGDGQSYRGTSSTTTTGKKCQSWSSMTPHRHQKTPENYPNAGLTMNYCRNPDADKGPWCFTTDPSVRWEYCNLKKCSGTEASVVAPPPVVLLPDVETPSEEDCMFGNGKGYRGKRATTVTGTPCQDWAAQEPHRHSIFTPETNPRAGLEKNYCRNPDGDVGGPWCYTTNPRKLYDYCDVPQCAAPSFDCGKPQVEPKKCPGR
Data set [8] deals with T4, matriptase (Homo sapiens, UniProt Q9Y5Y6).
T4 construct: from tissue; host or cells: human milk
T4 sequence (Q9Y5Y6 615-855 limits assumed): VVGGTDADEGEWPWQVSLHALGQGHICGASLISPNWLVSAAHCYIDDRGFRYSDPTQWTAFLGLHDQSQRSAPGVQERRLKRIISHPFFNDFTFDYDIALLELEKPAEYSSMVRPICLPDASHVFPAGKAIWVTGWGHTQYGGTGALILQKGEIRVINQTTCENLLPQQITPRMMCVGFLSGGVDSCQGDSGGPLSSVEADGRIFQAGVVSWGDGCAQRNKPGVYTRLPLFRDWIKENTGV
T4 sequence (Q9Y5Y6 190-614 partner limits assumed): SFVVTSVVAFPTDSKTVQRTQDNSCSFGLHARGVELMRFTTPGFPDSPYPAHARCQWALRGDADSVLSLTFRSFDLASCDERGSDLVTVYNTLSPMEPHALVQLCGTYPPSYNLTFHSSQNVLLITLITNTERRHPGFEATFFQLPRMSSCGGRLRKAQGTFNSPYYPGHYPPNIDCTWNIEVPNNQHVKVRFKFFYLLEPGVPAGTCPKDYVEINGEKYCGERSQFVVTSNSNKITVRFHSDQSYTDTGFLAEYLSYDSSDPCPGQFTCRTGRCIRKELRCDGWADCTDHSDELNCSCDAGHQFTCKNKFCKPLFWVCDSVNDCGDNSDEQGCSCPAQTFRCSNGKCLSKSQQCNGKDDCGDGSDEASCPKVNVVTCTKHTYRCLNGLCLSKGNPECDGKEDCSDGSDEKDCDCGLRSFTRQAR
The data set can be described thus: Gelatin zymography of matriptase/HAI-1 preparation. In kind it is biochemical. On the procedure: (§1) Matriptase and HAI-1 were isolated from human milk by anti-matriptase mAb 21-9 immunoaffinity chromatography, as described in Example 1, and were maintained in an uncomplexed status in elution buffer, 0.1 M glycine, pH 2.4. This preparation was brought to pH 8.5, incubated at 37° C. for 0, 5, 30 and 60 min., and subjected to immunoblotting using anti-matriptase mAb 21-9 (panel A), gelatin zymography (panel B), and to a cleavage rate assay using the synthetic, fluorescent substrate, BOC—Gin—Ala—Agr-7-amido 4-methylcoumarin (panel C). […] A milk-derived, matriptase-related 110-kDa protease (as indicated in panel A), which was not a complex of matriptase and HAI-1, and whose migration on SDS gel was reduced after boiling (see Example 1).
Gelatin zymography: Gelatin zymography was carried out as previously described with some modifications (Brown et al., Biochem J. 101: 214-228 (1966)). Gelatin (1 mg/ml), as a substrate, was copolymerized with regular SDS-polyacrylamide gel. Electrophoresis was performed at a constant current of 15 mA. The gelatin gels were washed 3 times with PBS containing 2% Triton X-100 and incubated in PBS at 37° C. overnight.
Inhibition of matriptase activity by the interaction with HAI-1: HAI-1, a protein containing contains two protease inhibitory domains (Kunitz domains), was initially identified as a binding protein of matriptase. […]

Data set [9] addresses T4, matriptase. In words: Cleavage rate assay with fluorescent substrate BOC-Gln-Ala-Arg-AMC after matriptase/HAI-1 complex formation. The conditions noted are these: pH 8.5. Format: biochemical. The method, then:
as §1
Proteolytic activity of matriptase determined by cleavage of trypsin substrate, BOC—Gln—Ala—Arg—AMC: A variety of synthetic, fluorescent protease substrates with arginine or lysine as P1 sites can be cleaved by matriptase, as described in Example 2. Among these substrates, t-butyloxycarbonyl (BOC)—Gln—Ala—Arg-7-amino-4-methylcoumarin (Sigma; St. Louis, Mo.) is likely to be the best one. Using this substrate, matriptase was assayed in 20 mM Tris buffer pH 8.5 at 25° C. in a total volume of 200 μl. The final substrate concentration was 0.1 mM. The rate of cleavage was determined with a fluorescence spectrophotometer (Hitachi, F-4500). […]

[10] abbreviates: after 30 and 60 min incubation at 37° C.

human tissue kallikrein, sequence (P06870 25-262): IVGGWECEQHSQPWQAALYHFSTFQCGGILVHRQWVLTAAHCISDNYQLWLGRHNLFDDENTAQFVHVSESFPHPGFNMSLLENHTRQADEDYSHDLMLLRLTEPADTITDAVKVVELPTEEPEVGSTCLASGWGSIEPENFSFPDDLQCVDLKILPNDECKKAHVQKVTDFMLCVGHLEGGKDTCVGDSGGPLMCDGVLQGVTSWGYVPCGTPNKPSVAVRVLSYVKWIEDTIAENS

B1: BBI: soybean-derived Bowman-Birk inhibitor of serine proteases (protein)
chain: T2 chain
B1: the “effect on matriptase activity” value in [1] was “decrease matriptase activity in a dose-dependent manner”.

B2: two-chain (active) form of matriptase, milk-derived, released from its complexes (protein)
chain 1: T4 sequence (Q9Y5Y6 190-614 partner limits assumed) with G202R, V203R, P204A, A205C
chain 2: T4 sequence (Q9Y5Y6 615-855 limits assumed)
Take B2: the “matriptase activity by fluorescent substrate assay and zymography” value in data set [2] was “BBI can decrease matriptase activity in a dose-dependent manner”. Moreover, in [3], the “cleavage rate of the fluorescent substrate BOC-Gln-Ala-Arg-7-amido-4-methylcoumarin after 5 min at 37° C., pH 8.5” value is recorded as “the cleavage rate for fluorescent substrate was significantly reduced, down to 18%”; the “gelatin zymography and cleavage of fluorescent substrate after 30 and 60 min at 37° C., pH 8.5” value was “negligible activity was observed by gelatin zymography (panel B) and by cleavage of fluorescent substrate”; the “rate of cleavage of a synthetic, fluorescent substrate” value is recorded as “the rate of cleavage of a synthetic, fluorescent substrate by matriptase was decreased following complex formation”.

B3: placenta bikunin: second Kunitz-type inhibitor with two Kunitz domains, isolated from human placenta (protein, UniProt O43291 28-252, looked up)
Kunitz-type protease …: ADRERSIHDFCLVSKVVGRCRASMPRWWYNVTDGSCQLFVYGGCDGNSNNYLTKEECLKKCATVTENATGDLATSRNAADSSVPSAPRRQDSEDHSSDMFNYEEYCTANAVTGPCRASFPRWYFDVERNSCNNFIYGGCRGNKNSYRSEEACMLRCFRQQENPPLPLGSKVVVLAGLFVMVLILFLGASMVYLIRVARRNQERALRTVWSSGDDKEQLVKNTYVL
On to B3, for which the “inhibition of human tissue kallikrein” value in data set [4] is “strong inhibition”. The “inhibition of human plasma kallikrein” value in [5] is listed as “strong inhibition”. Also, the “inhibition of human factor XIa” value in data set [6] is on record as “strong inhibition”. In data set [7], the “inhibition of human plasmin” value is listed as “strong inhibition”.

B4: HAI-1: Kunitz-type serine protease inhibitor, cognate inhibitor of matriptase, co-purified from human milk (protein, UniProt O43278 36-529, looked up)
Kunitz-type protease …: GPPPAPPGLPAGADCLNSFTAGVPGFVLDTNASVSNGATFLESPTVRRGWDCVRACCTTQNCNLALVELQPDRGEDAIAACFLINCLYEQNFVCKFAPREGFINYLTREVYRSYRQLRTQGFGGSGIPKAWAGIDLKVQPQEPLVLKDVENTDWRLLRGDTDVRVERKDPNQVELWGLKEGTYLFQLTVTSSDHPEDTANVTVTVLSTKQTEDYCLASNKVGRCRGSFPRWYYDPTEQICKSFVYGGCLGNKNNYLREEECILACRGVQGGPLRGSSGAQATFPQGPSMERRHPVCSGTCQPTQFRCSNGCCIDSFLECDDTPNCPDASDEAACEKYTSGFDELQRIHFPSDKGHCVDLPDTGLCKESIPRWYYNPFSEHCARFTYGGCYGNKNNFEEEQQCLESCRGISKKDVFGLRREIPIPSTGSVEMAVAVFLVICIVVVVAILGYCFFKNQRKDFHGHHHHPPPTPASSTVSTTEDTEHLVYNHTTRPL
B4: the “gelatinolytic activity by gelatin zymography” value in data set [8] (setting [10]) is “negligible activity”. Besides, the “gelatinolytic activity of complexed matriptase” value in [8] (after 5 min incubation at 37° C., versus uncomplexed matriptase) is reported as “much weaker activity”. The “activity by cleavage of fluorescent substrate” value in [9] (setting [10]) is reported as “negligible activity”. Besides, the “cleavage rate for fluorescent substrate, remaining” value in data set [9] (after 5 min incubation at 37° C.) was 18%.
